In publication PMC12000397 one finds Kd data, which are given here for 2 substances.

For assay [1], the target named is Grp94 N91C labeled with Alexa Fluor 555 (donor) and Alexa Fluor 647 (acceptor) (mouse) (UniProt P08113). The assay is described as follows: other fluorescence titration; bulk FRET of 125 nM donor- and acceptor-labeled Grp94 N91C, BiP NBD titrated, apo conditions; 30 °C, 25 mM Tris pH 7.5, 50 mM KCl, 1 mM BME, 1 mg/mL BSA; single-site fit; apparent.
The target in assay [2] is FITC-labeled BiP_(I191A) NBD (mouse). Put plainly: fluorescence polarisation; 50 nM FITC-labeled BiP NBD constructs, Grp94 or Grp94 MD titrated; 25 mM Tris pH 7.5, 50 mM KCl, 1 mM ADP (hexokinase-treated), 1 mM DTT; single-site binding fit. (In fluorescence polarisation assays a small probe gives low polarisation when free and higher when bound to something large.)
The target of assay [3] is FITC-labeled BiP NBD (mouse). The assay is described as above.
In assay [4] the target is FITC-labeled BiP_(D187A) NBD (mouse). Described as above.

Sequence of Grp94 (residues 72-765) with the charged-linker removed (Δ287-328) (P08113 other isoform, or with tags, fused parts or gaps mutant): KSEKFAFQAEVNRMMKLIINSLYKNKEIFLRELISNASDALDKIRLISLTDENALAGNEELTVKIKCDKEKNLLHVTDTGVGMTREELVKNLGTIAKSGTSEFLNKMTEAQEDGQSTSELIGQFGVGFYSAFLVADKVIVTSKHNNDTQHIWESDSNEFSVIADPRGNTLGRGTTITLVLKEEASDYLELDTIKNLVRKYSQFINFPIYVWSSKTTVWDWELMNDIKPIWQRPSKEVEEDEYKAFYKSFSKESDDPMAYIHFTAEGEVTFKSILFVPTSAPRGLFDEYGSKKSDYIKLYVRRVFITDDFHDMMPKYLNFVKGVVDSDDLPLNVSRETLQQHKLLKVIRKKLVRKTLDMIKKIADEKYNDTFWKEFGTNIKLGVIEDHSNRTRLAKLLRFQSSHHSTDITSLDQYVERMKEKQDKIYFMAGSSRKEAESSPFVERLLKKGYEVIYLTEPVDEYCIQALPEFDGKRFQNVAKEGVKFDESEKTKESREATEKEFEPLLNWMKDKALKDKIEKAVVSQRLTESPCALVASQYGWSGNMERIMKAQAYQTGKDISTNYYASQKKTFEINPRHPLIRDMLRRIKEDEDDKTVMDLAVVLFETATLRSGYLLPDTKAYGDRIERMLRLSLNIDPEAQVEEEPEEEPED
Sequence of Grp94 N91C labeled with Alexa Fluor 555 (donor) and Alexa Fluor 647 (acceptor) (mouse) (P08113 other isoform, or with tags, fused parts or gaps Δ287-328 | N91C | N91C): as the sequence (P08113 other isoform, or with tags, fused parts or gaps mutant) above, with N20C counted along it

In the case of BiP NBD (domain or fragment), the Kd in assay [1] was 0.67 µM.

In the case of “Grp94 (residues 72-765) with the charged-linker removed (Δ287-328) (from UniProt P08113 72-765) (natural protein)”, the Kd was 9 µM in assay [2], 1.4 µM in assay [3] and 8.2 µM in assay [4].
